Bridge positions count the residues as written; N and C are the ends. Square brackets hold non-standard residues; d marks the D form. Ends that are not written are not given here. * marks the point of attachment. (Trifluoro)l/L = 5,5,5-trifluoro-DL-leucine; Pro(trans-4-F) = O=C(O)[C@@H]1C[C@@H](F)CN1; Oic = O=C(O)[C@@H]1C[C@@H]2CCCC[C@@H]2N1; Butanoyl(3,3-Me2) = CC(C)(C)CC(=O)*; Cyclobutylacetic = O=C(CC1CCC1)*; tBuAla = CC(C)(C)C[C@H](N)C(=O)O; Gly(cBu) = N[C@H](C(=O)O)C1CCC1; Pen = CC(C)(S)[C@H](N)C(=O)O; NMeC = CN[C@@H](CS)C(=O)O; Orn = NCCC[C@H](N)C(=O)O; Lac = C[C@H](O)C(=O)O; Ahx = NCCCCCC(=O)O; Sar = CNCC(=O)O
T1: recombinant human MASP1 active protease (amino acids 297-699, C-terminal His Tag) (human, UniProt P48740 297-699)
T1 sequence: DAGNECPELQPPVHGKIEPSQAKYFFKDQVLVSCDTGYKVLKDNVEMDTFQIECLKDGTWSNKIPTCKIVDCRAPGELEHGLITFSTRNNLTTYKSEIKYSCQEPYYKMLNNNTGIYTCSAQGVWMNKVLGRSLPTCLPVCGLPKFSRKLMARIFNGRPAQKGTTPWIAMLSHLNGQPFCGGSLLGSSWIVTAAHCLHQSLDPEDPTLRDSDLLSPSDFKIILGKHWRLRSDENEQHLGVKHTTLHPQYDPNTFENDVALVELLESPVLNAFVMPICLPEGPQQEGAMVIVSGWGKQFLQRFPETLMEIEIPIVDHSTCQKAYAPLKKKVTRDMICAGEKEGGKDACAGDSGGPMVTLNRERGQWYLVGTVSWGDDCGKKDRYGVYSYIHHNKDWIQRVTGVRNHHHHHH


Experiments:
[1] = target: T1, recombinant human MASP1 active protease …; experiment: cell-based or functional assay
[2] = target: recombinant human MASP2 active protease (amino acids 297-686, C-terminal His Tag) (human, UniProt O00187 297-686); experiment: cell-based or functional assay
recombinant human MASP2 active protease (amino acids 297-686, C-terminal His Tag), sequence (O00187 other isoform, or with tags, fused parts or gaps limits assumed): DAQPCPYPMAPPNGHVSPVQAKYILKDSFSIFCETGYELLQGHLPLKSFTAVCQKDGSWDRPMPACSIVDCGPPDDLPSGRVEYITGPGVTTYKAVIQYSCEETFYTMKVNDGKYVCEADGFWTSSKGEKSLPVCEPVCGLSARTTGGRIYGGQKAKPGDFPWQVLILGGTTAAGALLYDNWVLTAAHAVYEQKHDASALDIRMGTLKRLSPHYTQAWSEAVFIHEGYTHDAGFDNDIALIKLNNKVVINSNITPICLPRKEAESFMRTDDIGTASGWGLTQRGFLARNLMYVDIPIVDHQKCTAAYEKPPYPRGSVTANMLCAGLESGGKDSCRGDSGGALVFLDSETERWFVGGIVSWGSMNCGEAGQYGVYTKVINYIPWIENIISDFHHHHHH

Binder | human MASP1 IC50 [1] | human MASP2 IC50 [2]
[Ahx]ICSRSLP[Oic]ICI-OH (disulfide 3-11; N-terminus assumed; SMILES CC[C@H](C)[C@H](NC(=O)[C@@H]1CSSC[C@H](NC(=O)[C@@H](NC(=O)CCCCCN)[C@@H](C)CC)C(=O)N[C@@H](CO)C(=O)N[C@@H](CCCNC(=N)N)C(=O)N[C@@H](CO)C(=O)N[C@@H](CC(C)C)C(=O)N2CCC[C@H]2C(=O)N2[C@@H](C[C@@H]3CCCC[C@@H]32)C(=O)N[C@@H]([C@@H](C)CC)C(=O)N1)C(=O)O) [Example 383: (Ahx)-IC+SRSLP-(Oic)-IC+I-OH] | 40 nM | 800 nM
AICSRSLPP[Gly(cBu)]CIPD-NH2 (disulfide 3-11; N-terminus assumed; SMILES CC[C@H](C)[C@H](NC(=O)[C@H](C)N)C(=O)N[C@H]1CSSC[C@@H](C(=O)N[C@H](C(=O)N2CCC[C@H]2C(=O)N[C@@H](CC(=O)O)C(N)=O)[C@@H](C)CC)NC(=O)[C@H](C2CCC2)NC(=O)[C@@H]2CCCN2C(=O)[C@@H]2CCCN2C(=O)[C@H](CC(C)C)NC(=O)[C@H](CO)NC(=O)[C@H](CCCNC(=N)N)NC(=O)[C@H](CO)NC1=O) [Example 389: AIC+SRSLPP-(Cyclobutylglycine)-C+IPD-NH2] | 46 nM | 330 nM
{(2S,3S)‑2‑((3S)-2-oxopiperazin-1-yl)‑3‑methylpentanoic acid}-CSRSLPPICIAD-OH (disulfide 1-9) [Example 393: ((2S,3S)-2-[(3S)-2-oxopiperazin-1-yl]-3-methylpentanoic acid)-C+SRSLPPIC+IAD-OH] | 49 nM | 3800 nM
ICSRSLP[Oic]I[Pen]IPQ-OH (disulfide 2-10; N-terminus assumed; SMILES CC[C@H](C)[C@H](N)C(=O)N[C@H]1CSSC(C)(C)[C@@H](C(=O)N[C@H](C(=O)N2CCC[C@H]2C(=O)N[C@@H](CCC(N)=O)C(=O)O)[C@@H](C)CC)NC(=O)[C@H]([C@@H](C)CC)NC(=O)[C@@H]2C[C@@H]3CCCC[C@@H]3N2C(=O)[C@@H]2CCCN2C(=O)[C@H](CC(C)C)NC(=O)[C@H](CO)NC(=O)[C@H](CCCNC(=N)N)NC(=O)[C@H](CO)NC1=O) [Example 388: IC+SRSLP-(Oic)-I-(Pen)+IPQ-OH] | 45 nM | 750 nM
[Sar][Orn][Orn][Orn]ICSRS[tBuAla]PPI[Pen]IP-NH2 (disulfide 6-14; N-terminus assumed; SMILES CC[C@H](C)[C@H](NC(=O)[C@H](CCCN)NC(=O)[C@H](CCCN)NC(=O)[C@H](CCCN)NC(=O)CNC)C(=O)N[C@H]1CSSC(C)(C)[C@@H](C(=O)N[C@H](C(=O)N2CCC[C@H]2C(N)=O)[C@@H](C)CC)NC(=O)[C@H]([C@@H](C)CC)NC(=O)[C@@H]2CCCN2C(=O)[C@@H]2CCCN2C(=O)[C@H](CC(C)(C)C)NC(=O)[C@H](CO)NC(=O)[C@H](CCCNC(=N)N)NC(=O)[C@H](CO)NC1=O) [Example 381: ((N-Me)G)-(Orn)-(Orn)-(Orn)-IC+SRS-((tBu)A)-PPI-(Pen)+IP-NH2] | 40 nM | 550 nM
[Sar]ICSRSLP[Pro(trans-4-F)]ICIPD-OH (disulfide 3-11; N-terminus assumed; SMILES CC[C@H](C)[C@H](NC(=O)CNC)C(=O)N[C@H]1CSSC[C@@H](C(=O)N[C@H](C(=O)N2CCC[C@H]2C(=O)N[C@@H](CC(=O)O)C(=O)O)[C@@H](C)CC)NC(=O)[C@H]([C@@H](C)CC)NC(=O)[C@@H]2C[C@@H](F)CN2C(=O)[C@@H]2CCCN2C(=O)[C@H](CC(C)C)NC(=O)[C@H](CO)NC(=O)[C@H](CCCNC(=N)N)NC(=O)[C@H](CO)NC1=O) [Example 390: ((N-Me)G)-IC+SRSLP-((trans-4-Fluoro)P)-IC+IPD-OH] | 47 nM | 1300 nM
GICSRS[(Trifluoro)l/L]PPICIPD-OH (disulfide 3-11) [Example 384: GIC+SRS-((Trifluoro)l/L)-PPIC+IPD-OH] | 42 nM | 260 nM
[Sar]ICSRSLPPICI[dP]D-OH (disulfide 3-11; N-terminus assumed; SMILES CC[C@H](C)[C@H](NC(=O)CNC)C(=O)N[C@H]1CSSC[C@@H](C(=O)N[C@H](C(=O)N2CCC[C@@H]2C(=O)N[C@@H](CC(=O)O)C(=O)O)[C@@H](C)CC)NC(=O)[C@H]([C@@H](C)CC)NC(=O)[C@@H]2CCCN2C(=O)[C@@H]2CCCN2C(=O)[C@H](CC(C)C)NC(=O)[C@H](CO)NC(=O)[C@H](CCCNC(=N)N)NC(=O)[C@H](CO)NC1=O) [Example 386: ((N-Me)G)-IC+SRSLPPIC+IpD-OH] | 43 nM | 750 nM
Cyclobutylacetic-ICSRS[tBuAla]PPI[NMeC]I-NH2 (disulfide 2-10; SMILES CC[C@H](C)[C@H](NC(=O)[C@@H]1CSSC[C@H](NC(=O)[C@@H](NC(=O)CC2CCC2)[C@@H](C)CC)C(=O)N[C@@H](CO)C(=O)N[C@@H](CCCNC(=N)N)C(=O)N[C@@H](CO)C(=O)N[C@@H](CC(C)(C)C)C(=O)N2CCC[C@H]2C(=O)N2CCC[C@H]2C(=O)N[C@@H]([C@@H](C)CC)C(=O)N1C)C(N)=O) [Example 382: (Cyclobutylacetic)-IC+SRS-((tBu)A)-PPI-((N-Me)C)+I-NH2] | 40 nM | 41 nM

Further lines, results first:

human MASP1 IC50 [1] | human MASP2 IC50 [2] | Binder
44 nM | 2200 nM | [Lac]ICSRS[tBuAla]PPICIPD-NH2 (disulfide 3-11; N-terminus assumed; SMILES CC[C@H](C)[C@H](NC(=O)[C@H](C)O)C(=O)N[C@H]1CSSC[C@@H](C(=O)N[C@H](C(=O)N2CCC[C@H]2C(=O)N[C@@H](CC(=O)O)C(N)=O)[C@@H](C)CC)NC(=O)[C@H]([C@@H](C)CC)NC(=O)[C@@H]2CCCN2C(=O)[C@@H]2CCCN2C(=O)[C@H](CC(C)(C)C)NC(=O)[C@H](CO)NC(=O)[C@H](CCCNC(=N)N)NC(=O)[C@H](CO)NC1=O) [Example 387: (Lactic)-IC+SRS-((tBu)A)-PPIC+IPD-NH2]
47 nM | 80 nM | {2‑Hydroxyisobutyric}-ICSRS[tBuAla]PPICIPD-NH2 (disulfide 2-10) [Example 392: (2-Hydroxyisobutyric)-IC+SRS-((tBu)A)-PPIC+IPD-NH2]
54 nM | 22 nM | Pivalic-ICSRS[tBuAla]PPI[NMeC]I-NH2 (disulfide 2-10) [Example 398: (Pivalic)-IC+SRS-((tBu)A)-PPI-((N-Me)C)+I-NH2]
54 nM | 3800 nM | {(2S,3S)‑2‑(2-Oxopiperazin-1-yl)‑3‑methylpentanoic acid}-CSRSLPPICIPD-OH (disulfide 1-9) [Example 397: ((2S,3S)-2-[2-Oxopiperazin-1-yl]-3-methylpentanoic acid)-C+SRSLPPIC+IPD-OH]
53 nM | 28 nM | {Butanoyl(3,3-Me2)}-ICSRS[tBuAla]PPI[Pen]I-NH2 (disulfide 2-10; SMILES CC[C@H](C)[C@H](NC(=O)[C@H]1NC(=O)[C@H]([C@@H](C)CC)NC(=O)[C@@H]2CCCN2C(=O)[C@@H]2CCCN2C(=O)[C@H](CC(C)(C)C)NC(=O)[C@H](CO)NC(=O)[C@H](CCCNC(=N)N)NC(=O)[C@H](CO)NC(=O)[C@@H](NC(=O)[C@@H](NC(=O)CC(C)(C)C)[C@@H](C)CC)CSSC1(C)C)C(N)=O) [Example 396: (tert-Butylacetic acid)-IC+SRS-((tBu)A)-PPI-(Pen)+I-NH2]
